Test in all cases: ammonia release, indophenol blue, OD640; Michaelis-Menten fit
Conditions in all cases: 50 mM MES-NaOH pH 7.0, 1 mM DTT, 40 °C, 30 min, 10 nM enzyme

Substrate in data set [1]: NCCCCNC(N)=O
Type of data set: biochemical, Microterricola gilva. An excerpt:
ammonia release, indophenol blue, OD640; Michaelis-Menten fit on Microterricola gilva AguY (MgAguY)

Substrate in data set [2]: NCCCCNC(N)=O
The class given is biochemical, Pseudomonas aeruginosa. The text has this:
ammonia release, indophenol blue, OD640; Michaelis-Menten fit on P. aeruginosa NCPAH/AguB (PaAguB)

Substrate in data set [3]: NCCCCNC(N)=O
Type of data set: biochemical, Shewanella oneidensis. The text has this: ammonia release, indophenol blue, OD640; Michaelis-Menten fit on Shewanella oneidensis AguY (SoAguY)

Usually Km stands for the concentration of substrate that gives half-maximal velocity. In general, kcat refers to the number of substrate molecules converted per active site and unit of time at saturation. As a reminder, the kcat/Km is the turnover number divided by the Michaelis constant.

B1: Microterricola gilva AguY (MgAguY) (Microterricola gilva) (protein)
chain: MTSPTVGKGGIVEAGIDELAAALAAGETSAVALLDAYLARIRAFDAPGTATALNAYVVMNPDARADAEASDARRARGESRGPLDGIPYSAKDSYLAAGLTAAAGSPAFTALIAQQDAFTIERLRTAGAVLIGLTNMPPMANGGMQRGAYGRAESPYNAAWLTAAFGSGSSNGSGTATAASMCAFGLGEETWSSGRAPASNNALCAYTPSRGIISMRGNWPLVPTMDVVVPHTRTMADLLRVLDVIVAEDGDTRGDFWRSQPWLEIPRVDEHRPASYPSLAPTDLAAAQATLRGTRLGVPRMYINGDQDAGTGEPGGIGGPTGQRIETRASVIELWEAARRDLEAAGATVVEVDFPLVSNYEGDRAGAPTITNRGLVSPEFLHTELNDLAAWAWNDFLEMNGDPRLSSLAAVDGERIFPAPPGSLPDRYQGFDDDIADLPRIAAERHWASVEEIEELADGIRGLEHTRAIDFDAWMASNRLDAVVFPAVADVGPADMDVNEASADAGWRNGVWVANGNLVIRHFGIPTVTVPMGLMRDIRMPVGLTFAGLPYDDVALLRLAAAFERTAERRVAPPLSAPPARAHR
notes: full length, 584 aa, 61,738 Da; purified recombinant, codon-optimised synthetic gene, expressed in E. coli; genome has a second AguY paralog
Turning to B1, in data set [1], the Km came out at 70 ± 300 µM, the kcat turned out to be 39 ± 1.5 s⁻¹ and the kcat/Km came out at 642000 ± 251000 M⁻¹ s⁻¹.

B2: P. aeruginosa NCPAH/AguB (PaAguB) (Pseudomonas aeruginosa PAO1) (protein)
chain: MTRNVTVAATQMACSWDRPANIARAEKLVRQAAARGAQIILIQELFETPYFCQKPNPDYLQLATTVEENAAIAHFQALARELQVVLPISFFERAGRARFNSIAVIDADGGNLGVYRKSHIPDGPGYHEKYYFNPGDTGFKVWQTRYARIGVGICWDQWFPESARSMALLGAELLFYPTAIGSEPHDASISSRDHWQRVQQGHAGANLMPLVASNRIGREEQDGYDITFYGSSFIADPFGEKVEELNRTEEGILVHTFDLDALERTRSAWGVFRDRRPNLYGPLKTLDGSLES
notes: full length, 292 aa, 32,780 Da; purified recombinant, codon-optimised synthetic gene, expressed in E. coli
Take B2: in data set [2], the Km worked out at 660 ± 110 µM, the turnover number (kcat) worked out at 54.1 ± 3 s⁻¹ and the kcat/Km was 82500 ± 8800 M⁻¹ s⁻¹.

B3: Shewanella oneidensis AguY (SoAguY) (Shewanella oneidensis MR-1) (protein)
chain: MFEVTEVSIAELRAALESGRTTVVELVKSYLARVAAYDGPATETKLNALVVHNPDALKEAEASDARRARGETLSPLDGIPYTAKDSYLVKGLTAASGSPAFKDLVAQYDAFAVERLRAAGAICLGKTNMPPMANGGMQRGHYGRAESPYNAEYLTAPFASGSSNGAGTGTAASYSAFGLAEETWSSGRGPASNNGLCAYTPSRGVISVRGNWPLTPTMDVVVPYTRTMADMLEVLDVIVADDPITRGDLWRLQPWVQIPKASTVRPESYLALAASADTLKGKRFGVPRMYINKDELAGTSENPGIGGPTGQRIHTRQSVIDLWEAARKALEAAGAEVIEVDFPLVSNCEGDRPGAPTVFNRGIVTPQFLHDELWELSGWAFDEFLRANNDPKLNKLEDVVGHLIFPHDLCTLPNREGDLAAGMEEYVNMAKRGLKSFDQIDSIPDGLRGLEKTRKLDLEDWMDGLKLDAVLFPTVADVGPADAHVNPASADIAWSNGVWVANGNLAIRHLGVPTVTVPMGVMADIGMPVGLTFAGRAYDDNNLLKFAGAFESTGNRRIIPPRTPKLGQ
notes: full length, 568 aa, 60,996 Da; purified recombinant, codon-optimised synthetic gene, expressed in E. coli
Turning to B3, in data set [3], the Km stood at 740 ± 130 µM, the kcat stood at 130 ± 4.5 s⁻¹ and the kcat/Km was 179000 ± 28600 M⁻¹ s⁻¹.

The record behind these values is paper PMC12283126, “The Pseudomonas aeruginosa Type VI secretion system toxin Tse8 evolved from a novel N-carbamoylputrescine amidohydrolase” (Biochemical Journal, 2025).
